Substitutions are numbered along the chain they refer to. Names may count otherwise.
T1: CD27 expressed on the cell surface (HT1080_CD27 cells) (human, UniProt P26842 20-260)
T1 sequence (looked up): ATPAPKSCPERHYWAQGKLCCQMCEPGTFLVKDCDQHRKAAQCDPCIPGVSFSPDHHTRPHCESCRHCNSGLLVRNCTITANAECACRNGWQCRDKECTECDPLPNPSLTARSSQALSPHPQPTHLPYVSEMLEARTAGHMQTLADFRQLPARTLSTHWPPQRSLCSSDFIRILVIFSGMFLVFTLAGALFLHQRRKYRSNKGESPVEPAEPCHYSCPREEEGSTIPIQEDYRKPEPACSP

T2: CD27 protein (His-tagged, Sino Biological Inc. 10039-H08B1) (human, UniProt P26842 20-192)
T2 construct: bought; coated onto ELISA plates; also called human CD27; recombinant protein; not shown: His tag
T2 sequence (looked up): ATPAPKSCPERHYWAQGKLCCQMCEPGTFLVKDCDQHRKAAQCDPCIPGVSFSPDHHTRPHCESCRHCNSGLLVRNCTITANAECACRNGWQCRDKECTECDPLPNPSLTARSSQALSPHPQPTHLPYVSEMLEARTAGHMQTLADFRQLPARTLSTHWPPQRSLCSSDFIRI

B1: P018.S.04.A.A05 (antibody, V domains shown)
VH: QSLEESGGRLVTPGTPLTLTCTASGFTISSYEMGWVRQAPGEGLEYIGWIASGGSTFYASWAKGRFTISRTSTTVDLTITDLRPSDTGTYFCARGYVEFKLWGPGTLVTVSS
VL: DIVMTQTPASVSESVGGTVTIKCQASQSIGSYLSWYQQKPGQPPKVLIYRASTLESGVPSRFEGSGSGTQFTLTISDLESADAATYYCQGYHSTSGYVAFGGGTELVVK
notes: V regions on human Ig constant parts; also called AB27_65
B2: P018.S.05.A.F02 (antibody, V domains shown)
VH: QSVEESGGRLVTPGTPLTLTCTVSGFSLNNYGITWVRQAPGKGLEYIGYINYGGIAYYASWVNGRFTISKTSTTVDLKMTSLTAADTATYFCARGYGYYSAGNLWGQGTLVTVSS
VL: AQVLTQTPSPVSAAVGGTVTINCQASQSVYDNNYLSWYQQKPGQPPKRLIYDASSLASGVPSRFSGSGSGTQFTLTISGVQSDDAATYYCAGEYSCLSDDCIAFGGGTEVVVK
notes: V regions on human Ig constant parts; also called AB27_91
B3: P018.S.04.A.B03 (antibody, V domains shown)
VH: QSLEESGGRLVTPGTPLTLTCTASGFSLSSYDMSWVRQAPGKGLEWIGYIWSDGDTDYANWAIGRFTISKTSTTVDLKMTSPTTEDTATYFCARGYTNYDLWGQGTLVTVSS
VL: AAVLTQTPSSVSAAVGGTVTISCQSSQSLYSDPYLSWHQQKPGQPPKRLIYQASTLASGVSSRFKGSGSGTEYTLTISDVQSDDAATYFCQGTYYSDGWYSDFGGGTEVVVK
notes: V regions on human Ig constant parts; also called AB27_67
B4: P018.S.10.A.E06 (antibody, V domains shown)
VH: QSLEESGGRLVTPGTPLTLTCTVSGIDLSDYAMAWVRQAPGKGLEYIGFINIGGISSVANWAIGRFTISKSSTTVDLKITSPTTEDTATYFCAREGYTTGGGGPYYGMDLWGPGTLVTVSS
VL: DIVMTQTPASVSEPMGGTVTIKCQASQSIHSWLSWYQQKPGQPPKRLIYTASTLASGVPSRFKGSGSGTEYTLTISDLESADAATYYCQRNSYSDFNNYVFGGGTEVVVK
notes: V regions on human Ig constant parts; also called AB27_178
B5: P018.S.09.A.C03 (antibody, V domains shown)
VH: QSVEESGGRLVTPGTPLTLTCTVSGFSLSSYGMIWVRQAPGKGLEWIGWISSNDNKYYARWAKGRFTISKTSTTVDLKMTSLTTEDTATYFCVRNGVYNTGNYFDLWGQGTLVTVSS
VL: AQVLTQTPSSVSAAVGGTVTINCQASQSLYNNKNLAWYQQKPGQPPKFLIYTASSLASGVSSRFKGSGSGTQFTLTISDVQSDDAATYYCQGEFDCDSDDCFAFGGGTEVVVK
notes: V regions on human Ig constant parts; also called AB27_148
B6: P018.S.09.A.D05 (antibody, V domains shown)
VH: QSLEESGGRLVTPGGSLTLTCTVSGIDLSSYAMDWVRQAPGKGLEWIGVIGAGGSTYYASWANGRFTISKTSTTVDLKISSPTTEDTATYFCARDIGGDYSSRYYFSLWGPGTLVTVSS
VL: DIVMTQTPASVEAAVGGTVTIKCQASQSTSTALAWYQQKPGQRPKLLIYDSSKLASGVPSRFSGSGSGTEFTLTISGVQSDDAASYYCQQGYNINNVAFGGGTEVVVK
notes: V regions on human Ig constant parts; also called AB27_152
B7: P018.S.01.A.C06 (antibody, V domains shown)
VH: QSVEESGGRLVTPGTPLTLTCTVSGIDLNNYVMGWVRQAPGKGLEWIGIINTAGSTYYANWAKGRFTISKTSTTVDLKITSPTTEDTATYFCARDSSYYIGYYFNLWGPGTLVTVSS
VL: QIVMTQTPASVEVAVGGTVTIKCQASQSIGSNLAWYQQKPGQPPKLLIYDASDLESGVPSRFKGSGSGAQFTLTISDLESADAATYYCQQGYSATTNVDNAFGGGTEVVVK
notes: V regions on human Ig constant parts; also called AB27_10
B8: P018.S.10.A.H02 (antibody, V domains shown)
VH: QSLEESGGRLVTPGGSLTLTCTVSGIDLSSYAMGWFRQAPGKGLEYIGIIYSSGSTWFANWVKGRFTISKTSTTVDLKMTSLTTEDTATYFCARYSAADHGDKFKLWGQGTLVTVSS
VL: AAVLTQTPSPVSAAVGGTVSISCQSSKNIFDNTRLSWFQQKPGQPPKQLIYGASTLASGVPSRFSGSGSGTQFTLTISGVQSDDAATYYCLGEYSSDSDTSFGGGTEVVVK
notes: V regions on human Ig constant parts; also called AB27_185
B9: P018.S.07.A.C06 (antibody, V domains shown)
VH: QSVEESGGRLVTPGTPLTLTCTVSGFSLNHYHMCWVRQAPGKGLEYIGRIDNSGYIVYASWAKGRFTISKTSTTVDLKITSPTTADTATYFCGKYYSGGSYDLWGQGTLVTVSS
VL: AQVLTQTASSVSAAVGGTVTISCQSSQSVWNNNWLAWYQQKPGQPPKLLIYETSKLASGVPSRFKGSGSGTQFTLTISGVQSDDAATYYCQGEFSCSSDDCNAFGGGTEVVVK
notes: V regions on human Ig constant parts; also called AB27_121
B10: P018.S.03.A.E04 (antibody, V domains shown)
VH: QEQLKESGGGLVTPGGTLTLTCTVSGIDLSSYAISWVRQAPGKGLEWIGYIYVGSTTTWYASWVKGRSTISKTSSTTVDLKMTSLTTEDTATYFCARAYDSGYIGNSFYIFHPWGPGTLVTVSS
VL: DIVMTQTPASVSATVGGTVTIKCQASQTISSRLAWYQQKPGQPPKLLIYSASTLASGVSSRFKGSGSGTEFTLTISDLESADGATYYCAGYGGLGITAFGGGTEVVVK
notes: V regions on human Ig constant parts; also called AB27_52
B11: P018.S.06.A.D04 (antibody, V domains shown)
VH: QSLEESGGRLVKPDETLTLTCTVSGFDLSSYAVVWVRQAPGKGLEWIGYIYGGSGSTWYASWAKGRFTISKTSSTTVDLKMTSLTTEDTATYFCARAYDSGYIGNSFYAFDPWGPGTLVTVSS
VL: B10 VL with T14A, R32T, T69P, A84G, Y87T, G93T, L94V, I96V, K108R
notes: V regions on human Ig constant parts; also called AB27_103
B12: P018.S.10.A.B06 (antibody, V domains shown)
VH: QSVEESGGRLVTPGTPLTLTCTVSGFSLSSSHMCWVRQAPGKGLEWIGVINIGDIAYYASWAKGRFTISKTSTTVDLKMTSLTAADTATYFCARENAYGTGWDFDLWGQGTLVTVSS
VL: AYDMTQTPASVEVAVGGTVTIKCQASESIRNALAWYQQKPGQPPKQLIYSASTLASGVPSRFKGSGSGTEFTLTISGVQSDDAATYYCQQGFSLRNVDNAFGGGTEVVVK
notes: V regions on human Ig constant parts; also called AB27_169
B13: P018.S.07.A.E03 (antibody, V domains shown)
VH: QSLEESGGRLVTPGTPLTLTCTVSGIDLSSYAMGWVRQAPGKGLELIGLIYASDRTHYATWAKGRFTISKSSTTVDLKATSLTTEDTATYFCGRYGRGSGGYYYGMDLWGPGTLVTVSS
VL: DVVMTQTPASVEAAVGGTVTIKCQASQSGDNYLSWYQQKSGQPPKLLIYLASTLASGVPSRFRGSRSGTEYTLTISDLESADAATYYCQNYCAGSGVCVGVAFGGGTEVVVK
notes: V regions on human Ig constant parts; also called AB27_125
B14: P018.S.09.A.E03 (antibody, V domains shown)
VH: QSVEESGGRLVTPGTPLTLTCTASGFSLSSYYMGWVRQAPGKGLEWIGFITSGGSGSTYYASWAKGRFTISKTSTTVDLKMTSLTTEDTATYFCARYGDSFYWALDLWGQGTLVTVSS
VL: AQVLTQTPSSVSAAVGGTVTINCQSSQSVLNNDLSWYQQKPGQPPKLLIYAASTLASGVPSRFKGSGSGTQFTLTINVGQSDDAATYYCQGYFIDVNNPFGGGTEVVVK
notes: V regions on human Ig constant parts; also called AB27_154
B15: P018.S.01.A.E04 (antibody, V domains shown)
VH: QEQLKESGGGLVTPGGTLTLTCTASGSDISNYGVSWVRQAPGKGLEWIGFINADGGGTWYASWVKGRFTISRTSTTVELKMTSLTTEHTATYFCATYGGGGGHNLWGPGTLVTVSS
VL: AQVLTQTPSSVSAAVGGTVTINCQSSQSVYDNNALAWYQQKPGQPPKLLLYSASRLASGVPSRFKGSGSGTQFTLTISDLESDDAATYYCAAYYGSGDIFAFGGGTEVVVE
notes: V regions on human Ig constant parts; also called AB27_16
B16: P018.S.02.A.D04 (antibody, V domains shown)
VH: QEQLVESGGGLVQPEGSLTLTCTASALSFYSAWICWVRQAPGKGLKWIACIYAGGSRSTYYATWATGRFTISEASSTTVTLQMTSLTAADTATYFCARSLSADTYWNLWGPGTLVTVSS
VL: DVVMTQTPASVEAAVGGTVTIKCQASESISSWLAWYQQKPGQPPKLLIYRASTLESGVPSRFKGSGSGTEFTLTISDLESADAATYYCQNNGGGTSGYTFGGGTEVVVK
notes: V regions on human Ig constant parts; also called AB27_33

molecular target: T1, CD27 expressed on the cell surface …; test: cell-based or functional assay
Note: test concentration or dose not given here.

IL-8, cross-linked by F(ab')2 fragment [abs. corr.] | IL-8 [abs. corr.] | Binder
2.24 abs. corr. | 1.67 abs. corr. | B1
1.91 abs. corr. | 0.526 abs. corr. | B2
1.97 abs. corr. | 0.394 abs. corr. | B3
2.06 abs. corr. | 0.262 abs. corr. | B4
2.25 abs. corr. | 0.464 abs. corr. | B5
2.11 abs. corr. | 0.187 abs. corr. | B6
1.79 abs. corr. | 0.325 abs. corr. | B7
2.1 abs. corr. | 1.57 abs. corr. | B8
1.04 abs. corr. | 0.408 abs. corr. | B9
1.19 abs. corr. | 0.2 abs. corr. | B10
1.06 abs. corr. | 0.444 abs. corr. | B11
1.46 abs. corr. | 0.455 abs. corr. | B12
1.51 abs. corr. | 0.123 abs. corr. | B13
1.54 abs. corr. | 0.099 abs. corr. | B14
1.15 abs. corr. | 0.264 abs. corr. | B15
1.37 abs. corr. | 0.569 abs. corr. | B16

molecular target: T2, CD27 protein (His-tagged, Sino …); test: ELISA on coated His-tagged CD27

ELISA [abs. corr.] | Binder
3.29 abs. corr. | B1
3.29 abs. corr. | B2
3.28 abs. corr. | B3
3.28 abs. corr. | B4
3.53 abs. corr. | B5
3.28 abs. corr. | B6
3.3 abs. corr. | B7
3.25 abs. corr. | B8
3.29 abs. corr. | B9
3.29 abs. corr. | B10
3.28 abs. corr. | B11
3.25 abs. corr. | B12
3.28 abs. corr. | B13
3.27 abs. corr. | B14
3.28 abs. corr. | B15
3.27 abs. corr. | B16

molecular target: T1, CD27 expressed on the cell surface …; test: cellular binding assay, HT1080_CD27 cells

Cellular binding assay [RFU] | Binder
206 RFU | B1
472 RFU | B2
338 RFU | B3
215 RFU | B4
319 RFU | B5
400 RFU | B6
369 RFU | B7
144 RFU | B8
336 RFU | B9
356 RFU | B10
394 RFU | B11
308 RFU | B12
227 RFU | B13
334 RFU | B14
295 RFU | B15
390 RFU | B16
